How the values were obtained:
[1] = test system: HeLa Kyoto; assay: solubility in G1/S (NP-40 vs SDS abundance) (log2 ratio); higher = more soluble; conditions: cell cycle stage: G1/S
[2] = test system: HeLa Kyoto; assay: melting temperature (median over replicates), in situ; higher = more thermally stable
[3] = test system: HeLa Kyoto; assay: solubility change mitosis vs G1/S (difference of NP-40 vs SDS log2 ratios) (log2 ratio difference); higher = more soluble in mitosis
[4] = test system: HeLa Kyoto; assay: thermal stability score vs G1/S (z-score of summed log2 fold changes over temperatures); higher = more thermally stable than in G1/S
[5] = cell cycle stage: early G1 (4.5 h after nocodazole release)
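Wherever melting temperature (median over replicates), in situ is given: HeLa Kyoto cells synchronized by double thymidine or nocodazole block, proteins quantified by TMT10plex mass spectrometry, three independent biological replicates.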
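Wherever solubility change mitosis vs G1/S (difference of NP-40 vs SDS log2 ratios) is given: synchronized HeLa Kyoto cells (double thymidine block for G1/S, nocodazole release for mitosis), protein amounts in NP-40 versus SDS lysates quantified by mass spectrometry, three biological replicates.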
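Wherever solubility in G1/S (NP-40 vs SDS abundance) is given: HeLa Kyoto cells arrested at G1/S by double thymidine block, proteins quantified by TMT10plex mass spectrometry in mild NP-40 versus SDS extracts, three biological replicates.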
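Wherever thermal stability score vs G1/S (z-score of summed log2 fold changes over temperatures) is given: synchronized HeLa Kyoto cells, proteins quantified by TMT10plex mass spectrometry, three biological replicates, mitosis taken 0.5 h after nocodazole release, G1/S directly after double thymidine block.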

| Sequence | solubility in G1/S (log2) [1] | melting temperature ([2]; cell cycle stage: G1/S) | melting temperature ([2]; cell cycle stage: mitosis) | solubility change mitosis (log2) [3] | thermal stability score [4, 5] | thermal stability score ([4]; cell cycle stage: mitosis) |
| --- | --- | --- | --- | --- | --- | --- |
| MPNIKIFSGSSHQDLSQKIADRLGLELGKVVTKKFSNQETCVEIGESVRGEDVYIVQSGCGEINDNLMELLIMINACKIASASRVTAVIPCFPYARQDKKDKSRAPISAKLVANMLSVAGADHIITMDLHASQIQGFFDIPVDNLYAEPAVLKWIRENISEWRNCTIVSPDAGGAKRVTSIADRLNVDFALIHKERKKANEVDRMVLVGDVKDRVAILVDDMADTCGTICHAADKLLSAGATRVYAILTHGIFSGPAISRINNACFEAVVVTNTIPQEDKMKHCSKIQVIDISMILAEAIRRTHNGESVSYLFSHVPL [PRPS1] | -0.185 | 57.3 °C | 57.4 °C | -0.136 | 1.55 | 0.473 |
| MAKQKRKVPEVTEKKNKKLKKASAEGPLLGPEAAPSGEGAGSKGEAVLRPGLDAEPELSPEEQRVLERKLKKERKKEERQRLREAGLVAQHPPARRSGAELALDYLCRWAQKHKNWRFQKTRQTWLLLHMYDSDKVPDEHFSTLLAYLEGLQGRARELTVQKAEALMRELDEEGSDPPLPGRAQRIRQVLQLLS [C7ORF50] | -0.289 | 50 °C | 53.5 °C | 0.57 | 0.0776 | 0.494 |
| MAATASAGVPATVSEKQEFYQLLKNLINPSCMVRRQAEEIYENIPGLCKTTFLLDAVRNRRAGYEVRQMAAALLRRLLSSGFEEVYPNLPADVQRDVKIELILAVKLETHASMRKKLCDIFAVLARNLIDEDGTNHWPEGLKFLIDSIYSKNVVLWEVALHVFWHFPGIFGTQERHDLDIIKRLLDQCIQDQEHPAIRTLSARAAAAFVLANENNIALFKDFADLLPGILQAVNDSCYQDDDSVLESLVEIADTVPKYLGPYLEDTLQLSLKLCGDSRLSNLQRQLALEVIVTLSETATPMLKKHTNIIAQAVPHILAMMVDLQDDEDWVNADEMEEDDFDSNAVAAESALDRLACGLGGKVVLPMTKEHIMQMLQSPDWKYRHAGLMALSAIGEGCHQQMESILDETVNSVLLFLQDPHPRVRAAACTTLGQMATDFAPNFQKKFHETVIAALLRTMENQGNQRVQSHAASALIIFIEDCPKSLLVLYVDSMVKNLHSVLVIKLQELIRNGTKLALEQLVTTIASVADTIEEKFVPYYDIFMPSLKHIVELAVQKELKLLRGKTIECISHIGLAVGKEKFMQDASNVMQLLLKTQSDLNNMEDDDPQTSYMVSAWARMCKILGKDFQQYLPLVIEPLIKTASAKPDVALLDTQDVENMSDDDGWQFVNLGDQQSFGIKTSGLEAKATACQMLVYYAKELREGFVEYTEQVVKLMVPLLKFYFHDNVRVAAAESMPFLLECARIRGPEYLAQMWQFICDPLIKAIGTEPDTDVLSEIMNSFAKSIEVMGDGCLNDEHLEELGGILKAKLEGHFKNQELRQVKRQEENYDQQVEMSLQDEDECDVYILTKVSDILHSLFSTYKEKILPWFEQLLPLIVNLICSSRPWPDRQWGLCIFDDIIEHCSPTSFKYVEYFRWPMLLNMRDNNPEVRQAAAYGLGVMAQFGGDDYRSLCSEAVPLLVKVIKCANSKTKKNVIATENCISAIGKILKFKPNCVNVDEVLPHWLSWLPLHEDKEEAIQTLSFLCDLIESNHPVVIGPNNSNLPKIISIIAEGKINETINYEDPCAKRLANVVRQVQTSEDLWLECVSQLDDEQQEALQELLNFA [RANBP6] | -0.0197 | 49.9 °C | 51.5 °C | -0.132 | 0.799 | 0.825 |
| MANINLKEITLIVGVVTACYWNSLFCGFVFDDVSAILDNKDLHPSTPLKTLFQNDFWGTPMSEERSHKSYRPLTVLTFRLNYLLSELKPMSYHLLNMIFHAVVSVIFLKVCKLFLDNKSSVIASLLFAVHPIHTEAVTGVVGRAELLSSIFFLAAFLSYTRSKGPDNSIIWTPIALTVFLVAVATLCKEQGITVVGICCVYEVFIAQGYTLPLLCTTAGQFLRGKGSIPFSMLQTLVKLIVLMFSTLLLVVIRVQVIQSQLPVFTRFDNPAAVSPTPTRQLTFNYLLPVNAWLLLNPSELCCDWTMGTIPLIESLLDIRNLATFTFFCFLGMLGVFSIRYSGDSSKTVLMALCLMALPFIPASNLFFPVGFVVAERVLYVPSMGFCILVAHGWQKISTKSVFKKLSWICLSMVILTHSLKTFHRNWDWESEYTLFMSALKVNKNNAKLWNNVGHALENEKNFERALKYFLQATHVQPDDIGAHMNVGRTYKNLNRTKEAEESYMMAKSLMPQIIPGKKYAARIAPNHLNVYINLANLIRANESRLEEADQLYRQAISMRPDFKQAYISRGELLLKMNKPLKAKEAYLKALELDRNNADLWYNLAIVHIELKEPNEALKKNFNRALELNPKHKLALFNSAIVMQESGEVKLRPEARKRLLSYINEEPLDANGYFNLGMLAMDDKKDNEAEIWMKKAIKLQADFRSALFNLALLYSQTAKELKALPILEELLRYYPDHIKGLILKGDILMNQKKDILGAKKCFERILEMDPSNVQGKHNLCVVYFEEKDLLKAERCLLETLALAPHEEYIQRHLNIVRDKISSSSFIEPIFPTSKISSVEGKKIPTESVKEIRGESRQTQIVKTSDNKSQSKSNKQLGKNGDEETPHKTTKDIKEIEKKRVAALKRLEEIERILNGE [TMTC3] | -0.0354 | 52.9 °C | 53.1 °C | -0.0802 | 0.0389 | 0.555 |
| MRSRSNSGVRLDGYARLVQQTILCYQNPVTGLLSASHEQKDAWVRDNIYSILAVWGLGMAYRKNADRDEDKAKAYELEQNVVKLMRGLLQCMMRQVAKVEKFKHTQSTKDSLHAKYNTATCGTVVGDDQWGHLQVDATSLFLLFLAQMTASGLRIIFTLDEVAFIQNLVFYIEAAYKVADYGMWERGDKTNQGIPELNASSVGMAKAALEAIDELDLFGAHGGRKSVIHVLPDEVEHCQSILFSMLPRASTSKEIDAGLLSIISFPAFAVEDVNLVNVTKNEIISKLQGRYGCCRFLRDGYKTPREDPNRLHYDPAELKLFENIECEWPVFWTYFIIDGVFSGDAVQVQEYREALEGILIRGKNGIRLVPELYAVPPNKVDEEYKNPHTVDRVPMGKVPHLWGQSLYILSSLLAEGFLAAGEIDPLNRRFSTSVKPDVVVQVTVLAENNHIKDLLRKHGVNVQSIADIHPIQVQPGRILSHIYAKLGRNKNMNLSGRPYRHIGVLGTSKLYVIRNQIFTFTPQFTDQHHFYLALDNEMIVEMLRIELAYLCTCWRMTGRPTLTFPISRTMLTNDGSDIHSAVLSTIRKLEDGYFGGARVKLGNLSEFLTTSFYTYLTFLDPDCDEKLFDNASEGTFSPDSDSDLVGYLEDTCNQESQDELDHYINHLLQSTSLRSYLPPLCKNTEDRHVFSAIHSTRDILSVMAKAKGLEVPFVPMTLPTKVLSAHRKSLNLVDSPQPLLEKVPESDFQWPRDDHGDVDCEKLVEQLKDCSNLQDQADILYILYVIKGPSWDTNLSGQHGVTVQNLLGELYGKAGLNQEWGLIRYISGLLRKKVEVLAEACTDLLSHQKQLTVGLPPEPREKIISAPLPPEELTKLIYEASGQDISIAVLTQEIVVYLAMYVRAQPSLFVEMLRLRIGLIIQVMATELARSLNCSGEEASESLMNLSPFDMKNLLHHILSGKEFGVERSVRPIHSSTSSPTISIHEVGHTGVTKTERSGINRLRSEMKQMTRRFSADEQFFSVGQAASSSAHSSKSARSSTPSSPTGTSSSDSGGHHIGWGERQGQWLRRRRLDGAINRVPVGFYQRVWKILQKCHGLSIDGYVLPSSTTREMTPHEIKFAVHVESVLNRVPQPEYRQLLVEAIMVLTLLSDTEMTSIGGIIHVDQIVQMASQLFLQDQVSIGAMDTLEKDQATGICHFFYDSAPSGAYGTMTYLTRAVASYLQELLPNSGCQMQ [PHKA2] | 0.00161 | 52.6 °C | 51.7 °C | -0.229 | 0.315 | -0.217 |

Source: the supplement of paper PMC5998384
